Measured values: patent US20090156496A1, “METHODS AND COMPOSITIONS FOR TREATING AND PREVENTING PERIPHERAL NERVE DAMAGE” (CHILDREN'S MEDICAL CENTER CORPORATION, INC., priority 2006, published 2009)
Entries after “also recorded” stand apart in the source; their conditions may differ.

Assays:
RGCs [1] = assay: axon outgrowth in primary adult retinal cultures; assay type: cell-based, rat
Experimental: Protein A beads (Sigma) were incubated with either rabbit anti-OM antiserum (Swant) or normal rabbit serum (Invitrogen) for 16 h at 4° C. After extensive rinsing, beads with adsorbed IgGs were mixed with MCM (1 ml 10× concentrate, collected 8 h after zymosan treatment) for 24 h at 4° C. and then pelleted down by centrifugation. We tested 5 μl of the supernatants or untreated MCM for oncomodulin by western blotting. Bioactivity of immune-depleted and control MCM was tested in dissociated RGC cultures as described below at a 1:4 dilution, a concentration found to give a near-maximal response.
(§1) Adult rat retinal cultures were prepared as described^21. […] One week later, retinas were dissected, dissociated, and the cells plated in defined, serum-free medium. Axon growth (% RGCs extending axons ≧30 μm, ≧70 μm or ≧140 μm in length) was evaluated after 3 d in quadruplicate samples in a blinded fashion. All experiments were repeated at least three separate times. In some instances, cells were immunostained with GAP-43 antibody (1:500, Chemicon).

RGCs [2] = assay: RGC survival in primary retinal cultures; assay type: cell-based, rat; details: retinal culture
Experimental: as §1

RGCs [3] = assay: ligand binding assay with AP-oncomodulin fusion proteins on immunopurified RGCs; set-up: species or system rat
Experimental: Adult rat retinal cells were dissociated as above and then isolated by immunopanning^31,46 using antibody MAC1 followed by an antibody to Thy1 (Chemicon). Purity was ˜98% based upon counting Fluorogold-labeled versus total cells. RGCs, treated with or without forskolin, were lightly fixed after 14-16 h in culture (4% paraformaldehyde (PFA), 6 min) before binding assays.
Binding assays were carried out as described^48 with slight modifications. Briefly, lightly fixed, immunopurified RGCs were incubated with AP-OM or AP (37° C., 24 h).
After extensive rinsing, cells were fixed again, heated (65° C., 90 min) to destroy endogenous AP and incubated with nitro blue tetrazolium chloride/5-bromo-4-chloro-3-indoyl phosphate toluidine salt (BCIPINBT). In some instances, AP-OM or AP (control), with or without forskolin, was added to the cultures before the initial fixation. Absorbance was measured with Image J software (US National Institutes of Health) and corrected by subtracting the level of AP binding. Binding curves and Scatchard plots were generated using Prism software. For displacement studies, varying concentrations of unlabeled oncomodulin were added to cultures after the equilibrium binding of 40 mM AP-OM at 37° C. for 24 h.

optic nerve = optic nerve regeneration in vivo after nerve crush, intraocular PLGA microspheres; set-up: species or system rat; details: 2 weeks, agent by itself
Experimental: Microspheres were prepared from lyophilized oncomodulin or sp-8-Br-cAMPs (Sigma) with PLGA using the solvent evaporation method of single emulsion^49. To measure the rate of protein release in vitro, 10 mg of oncomodulin-containing beads were incubated in phosphate-buffered saline (PBS; 37° C.). Supernatants were collected every 3 d and analyzed on western blots.
Optic nerve surgery was carried out on male Fisher rats (200-250 g) as described^18. Three days after nerve crush, rats received intraocular injections of blank microspheres or microspheres containing oncomodulin, sp-8-Br-cAMPs or both, in 10 μl saline after the same fluid volume was withdrawn from the eye (n=8-12 per group). Rats were killed 2 weeks later and their retinas, with optic nerves attached, were prepared as described^18,21. Axon growth was evaluated by GAP-43 immunostaining in the optic nerve at distances of 500 μm and 1 mm from the injury site^18,21. The length of the longest axon was measured in each case and averaged across all cases within each group.

P-CREB = P-CREB immunostaining in RGCs after intravitreous injection; assay type: in vivo, rat; details: 2 h after intravitreous injection, 1 μg μl^−1, 5 μl
Experimental: To investigate the immediate effects of oncomodulin in vivo, rats received an intravitreous injection of the protein (1 μg μl^−1, 5 μl volume, n=6) and were killed 2 h later. Retinal sections were immunostained to detect the phosphorylated form of the transcriptional activator CREB (antibody to P-CREB, 1:100, Cell Signaling Technology). Fluorescent photomicrographs were taken 2 mm from the optic nerve head.

DRG neurons [4] = assay: neurite outgrowth of DRG neurons cultured after intraganglionic injection in vivo; assay type: cell-based, rat
Experimental: (§2) L4-L5 DRGs from adult male Sprague-Dawley rats (250-300 g) were injected with 5 μl of saline or oncomodulin (200 ng μl^−1). After 7 d, injected ganglia were dissected and single-cell suspensions were prepared as described^50. Cells were cultured on laminin (Sigma) with or without CSPGs (Chemicon) for 20 h or 40 h. In some cases, chondroitinase ABC (0.5 U ml^−1, Seikagaku) was added. Neurite outgrowth was visualized by Tuj1 antibody to class III β-tubulin (1:5,000, Babco) and quantified in quadruplicate samples by a blinded observer. In other studies, L4-L5 DRG neurons were cultured in the presence of absence of oncomodulin, mannose and/or forskolin in RPMI-1640 to limit spontaneous outgrowth. Cells were fixed and immunostained after 3 d and evaluated for outgrowth.

DRG neurons [5] = assay: neurite outgrowth of naive DRG neurons in culture; assay type: cell-based, rat; details: 3 d culture
Experimental: as §2

[6] = in the absence of forskolin and mannose
[7] = in the presence of forskolin and mannose, 3 d, BDNF 50 ng ml^−1, CNTF 10 ng ml^−1, GDNF 50 ng ml^−1

B1: BDNF: brain-derived neurotrophic factor (protein, UniProt P23560 19-247, looked up)
Neurotrophic factor BDNF …: APMKEANIRGQGGLAYPGVRTHGTLESVNGPKAGSRGLTSLADTFEHVIEELLDEDQKVRPNEENNKDADLYTSRVMLSSQVPLEPPLLFLLEEYKNYLDAANMSMRVRRHSDPARRGELSVCDSISEWVTAADKKTAVDMSGGTVTVLEKVPVSKGQLKQYFYETKCNPMGYTKEGCRGIDKRHWNSQCRTTQSYVRALTMDSKKRIGWRFIRIDTSCVCTLTIKRGR
- axon outgrowth from RGCs in culture (RGCs [1]; [6]): Neither oncomodulin nor any of the other factors stimulated outgrowth
- axon outgrowth from RGCs in culture (RGCs [1]; [7]): ineffective

B2: oncomodulin: 11.7-kDa Ca2+-binding protein secreted by macrophages; recombinant rat oncomodulin expressed in Escherichia coli (protein)
chain: SITDILSAEDIAAALQECQDPDTFEPQKFFQTSGLSKMSASQVKDIFRFIDNDQSGYLDGDELKYFLQKFQSDARELTESETKSLMDAADNDGDGKIGADEFQEMVHS
- EC50 (RGCs [1]; RGCs, forskolin and mannose present, read-out: effective concentration for half-maximum response (EC50), axon outgrowth): ~3.8 nM
- axon outgrowth from RGCs in culture (RGCs [1]; [6]): Neither oncomodulin nor any of the other factors stimulated outgrowth
- axon outgrowth from RGCs in culture (RGCs [1]; [7]): nearly doubled the amount of outgrowth
- RGC survival (RGCs [2]): Neither oncomodulin nor any other factor enhanced RGC survival above baseline
- concentration at which binding saturated (RGCs [3]; AP-OM binding to RGCs): greater than 100 nM
- Kd (RGCs [3]; AP-OM, forskolin-treated RGCs, Scatchard plot, read-out: dissociation constant (Kd), binding to RGCs): 28 ± 5 nM
- IC50 (RGCs [3]; displacement of AP-OM by unlabeled oncomodulin, read-out: IC50, reversibility of binding to RGCs): ~30 nM
- displacement of AP-OM from RGCs (RGCs [3]; excess unlabeled competitor (100-fold)): displaced AP-OM from RGCs
- axon regeneration in optic nerve (optic nerve): had no effect
- level of P-CREB in RGCs (P-CREB): markedly increased
- DRG neurite outgrowth on nonpermissive substrate (DRG neurons [4]; CSPG substrate): promoted some outgrowth; also recorded: stimulated some outgrowth
- DRG neurite outgrowth on permissive substrate (DRG neurons [4]; exposed in vivo 1 week, poly-D-lysine+laminin, vs vehicle): considerably greater outgrowth
- outgrowth of previously untreated DRG neurons (DRG neurons [5]): acts on previously untreated DRG neurons

B3: AP-OM: alkaline phosphatase (AP)-oncomodulin fusion protein (protein)
chain: MSITDILSAEDIAAALQECQDPDTFEPQKFFQTSGLSKMSASQVKDIFRFIDNDQSGYLDGDELKYFLQKFQSDARELTESETKSLMDAADNDGDGKIGADEFQEMVHS
modifications: left off: large carriers; small tags and cut ends
notes: alkaline phosphatase (AP)-oncomodulin fusion protein
- binding to RGCs (RGCs [3]; [cAMP]i elevated with forskolin): bound strongly
- binding to RGCs (RGCs [3]; basal conditions (no forskolin)): Neither AP-OM nor AP showed appreciable binding
- binding to RGCs (RGCs [3]; untreated RGCs permeabilized after light fixation, no forskolin): bound even without previous forskolin treatment

B4: CNTF: ciliary neurotrophic factor (protein, UniProt P26441 1-200, looked up)
Ciliary neurotrophic factor: MAFTEHSPLTPHRRDLCSRSIWLARKIRSDLTALTESYVKHQGLNKNINLDSADGMPVASTDQWSELTEAERLQENLQAYRTFHVLLARLLEDQQVHFTPTEGDFHQAIHTLLLQVAAFAYQIEELMILLEYKIPRNEADGMPINVGDGGLFEKKLWGLKVLQELSQWTVRSIHDLRFISSHQTGIPARGSHYIANNKKM
- axon outgrowth from RGCs in culture (RGCs [1]; [6]): Neither oncomodulin nor any of the other factors stimulated outgrowth
- axon outgrowth from RGCs in culture (RGCs [1]; [7]): increased axon growth
